Results from EP1053001B1.
Non-standard residues stand in square brackets, D forms with d. No end group written: not given here. *: point of attachment. Aib = CC(C)(N)C(=O)O; For = O=C*

Biological target: T1, calcitonin receptors (human T47D / MCF7 breast carcinoma cells) (human), P30988
T1 chain: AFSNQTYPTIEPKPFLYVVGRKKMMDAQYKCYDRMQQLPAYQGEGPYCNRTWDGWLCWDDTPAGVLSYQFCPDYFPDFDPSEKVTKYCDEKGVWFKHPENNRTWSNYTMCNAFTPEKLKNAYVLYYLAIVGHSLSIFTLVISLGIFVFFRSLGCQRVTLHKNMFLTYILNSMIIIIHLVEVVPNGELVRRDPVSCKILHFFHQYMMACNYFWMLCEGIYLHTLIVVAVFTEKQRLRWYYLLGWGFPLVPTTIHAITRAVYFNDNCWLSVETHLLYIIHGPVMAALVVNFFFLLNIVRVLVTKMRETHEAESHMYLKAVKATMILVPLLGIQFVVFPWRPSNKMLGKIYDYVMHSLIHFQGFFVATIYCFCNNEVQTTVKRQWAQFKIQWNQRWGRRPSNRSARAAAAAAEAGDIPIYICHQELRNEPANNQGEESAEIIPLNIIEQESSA
Test: radioligand competition vs 125I-salmon calcitonin, human T47D cell membranes

IC50: 93 nM
Binder: VL[Aib]K(For)LSQEL[Aib]K(For)LQTYPRTNTGSNTY-NH2 [Compound 8]
